Laboratory results published in the RNAGym collection of RNA variant scans (doi:10.1093/nar/gkz1192).

B1: CPEB3 Ribozyme (parent)
chain: UAACAGGGGGCCACAGCAGAAGCGUUCACGUCGCAGCCCCUGUCAGAUUCUGGUGAAUCUGCGAAUUCUGCUGUAUAUCUC

Variants of: B1
Assay: self-cleavage, relative activity (ratio to wild type); higher = more cleavage; in vitro, sequencing
How it was run: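 Barcoded CPEB3 ribozyme mutants, produced by rounds of error-prone PCR, self-cleaved while being transcribed with T7 RNA polymerase for 5 hours at 37°C and during a subsequent 15 min DNase I step before EDTA was added. Sequencing of template-switched cDNA on Illumina gave cleaved and total reads, and DNA sequencing assigned barcodes to variants. Each variant's relative activity is its cleaved/total read fraction divided by the unmutated ribozyme's fraction, averaged across three batches. A variant needed a minimum of 5 reads.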
With UAACAGGGGGCCACAGCAGAAGCGUUCACGUCGCAGCCCCUGUCAGAUCCUGGGGAAUCUGCGAAUUCUGCUGUAUAUCUC [U49C U54G] the self-cleavage was 0.25.
Variant UAACAGGGGGCCACAGCAGAAGCGUUCACGUCGCAGCCCCUGUCAGAUCCUGGCGAAUCUGCGAAUUCUGCUGUAUAUCUC [U49C U54C] has a self-cleavage of 0.38.
UAACAGGGGGCCACAGCAGAAGCGUUCACGUCGCAGCCCCUGUCAGAUCCUGGAGAAUCUGCGAAUUCUGCUGUAUAUCUC [U49C U54A] gave a self-cleavage of 0.42.
Variant UAACAGGGGGCCACAGCAGAAGCGUUCACGUCGCAGCCCCUGUCAGAUCCUGGUGAAUCUGCGAACUCUGCUGUAUAUCUC [U49C U66C] has a self-cleavage of 0.25.
Variant UAACAGGGGGCCACAGCAGAAGCGUUCACGUCGCAGCCCCUGUCAGAUCCUGGUGAAUCUGCGAAAUCUGCUGUAUAUCUC [U49C U66A] has a self-cleavage of 0.31.
In the case of UAACAGGGGGCCACAGCAGAAGCGUUCACGUCGCAGCCCCUGUCAGAUCCUGGUGAAUCUGCGAAGUCUGCUGUAUAUCUC [U49C U66G], the self-cleavage is reported as 0.29.
Work on UAACAGGGGGCCACAGCAGAAGCGUUCACGUCGCAGCCCCUGUCAGAUUAUGGUGAAUCUGCGAGUUCUGCUGUAUAUCUC [C50A A65G] yielded a self-cleavage of 0.31.
Work on UAACAGGGGGCCACAGCAGAAGCGUUCACGUCGCAGCCCCUGUCAGAUUAAGGUGAAUCUGCGAAUUCUGCUGUAUAUCUC [C50A U51A] yielded a self-cleavage of 0.84.
For UAACAGGGGGCCACAGCAGAAGCGUUCACGUCGCAGCCCCUGUCAGAUUACGGUGAAUCUGCGAAUUCUGCUGUAUAUCUC [C50A U51C], the self-cleavage was 0.93.
Work on UAACAGGGGGCCACAGCAGAAGCGUUCACGUCGCAGCCCCUGUCAGAUGCUGGUGAAUCUGCAAAUUCUGCUGUAUAUCUC [U49G G63A] yielded a self-cleavage of 0.28.
In the case of UAACAGGGGGCCACAGCAGAAGCGUUCACGUCGCAGCCCCUGUCAGAUUAUGGUGGAUCUGCGAAUUCUGCUGUAUAUCUC [C50A A56G], the self-cleavage is reported as 0.43.
For UAACAGGGGGCCACAGCAGAAGCGUUCACGUCGCAGCCCCUGUCAGAUUAUGGUGAUUCUGCGAAUUCUGCUGUAUAUCUC [C50A A57U], the self-cleavage was 0.22.
In the case of UAACAGGGGGCCACAGCAGAAGCGUUCACGUCGCAGCCCCUGUCAGAUUAUGGUGAAUCUGCGAAUUCUGGUGUAUAUCUC [C50A C71G], the self-cleavage is reported as 0.18.
UAACAGGGGGCCACAGCAGAAGCGUUCACGUCGCAGCCCCUGUCAGAUUAUGGUGAAUCUGCGAAUUCUGUUGUAUAUCUC [C50A C71U] showed a self-cleavage of 0.55.
In the case of UAACAGGGGGCCACAGCAGAAGCGUUCACGUCGCAGCCCCUGUCAGAUGCUGGUGAAUCUGCGAAUUCUGCUGUAUAUCCC [U49G U80C], the self-cleavage is reported as 0.48.
UAACAGGGGGCCACAGCAGAAGCGUUCACGUCGCAGCCCCUGUCAGAUGCUGGUGGAUCUGCGAAUUCUGCUGUAUAUCUC [U49G A56G] gave a self-cleavage of 0.35.
With UAACAGGGGGCCACAGCAGAAGCGUUCACGUCGCAGCCCCUGUCAGAUGCUGGUGUAUCUGCGAAUUCUGCUGUAUAUCUC [U49G A56U] the self-cleavage was 0.65.
Work on UAACAGGGGGCCACAGCAGAAGCGUUCACGUCGCAGCCCCUGUCAGAUGCUGGUGAAUCUGCGAAUUCUGCUGUAUGUCUC [U49G A77G] yielded a self-cleavage of 0.39.
With UAACAGGGGGCCACAGCAGAAGCGUUCACGUCGCAGCCCCUGUCAGAUCCUGGUGAAACUGCGAAUUCUGCUGUAUAUCUC [U49C U58A] the self-cleavage was 0.14.
UAACAGGGGGCCACAGCAGAAGCGUUCACGUCGCAGCCCCUGUCAGAUCCUGGUGAACCUGCGAAUUCUGCUGUAUAUCUC [U49C U58C] gave a self-cleavage of 0.24.
UAACAGGGGGCCACAGCAGAAGCGUUCACGUCGCAGCCCCUGUCAGAUCCUGGUGAAUCUGCGAAUUCUGCUGUAAAUCUC [U49C U76A] showed a self-cleavage of 0.49.
UAACAGGGGGCCACAGCAGAAGCGUUCACGUCGCAGCCCCUGUCAGAUCCUGGUGAAUCUGCGAAUUCUGCUGUACAUCUC [U49C U76C] gave a self-cleavage of 0.48.
For UAACAGGGGGCCACAGCAGAAGCGUUCACGUCGCAGCCCCUGUCAGAUCCUGGUGAAUCUGCGAAUGCUGCUGUAUAUCUC [U49C U67G], the self-cleavage was 0.32.
With UAACAGGGGGCCACAGCAGAAGCGUUCACGUCGCAGCCCCUGUCAGAUCCUGGUGAAUCUGCGAAUACUGCUGUAUAUCUC [U49C U67A] the self-cleavage was 0.28.
In the case of UAACAGGGGGCCACAGCAGAAGCGUUCACGUCGCAGCCCCUGUCAGAUCCUGGUGAAUCUGCGAAUCCUGCUGUAUAUCUC [U49C U67C], the self-cleavage is reported as 0.23.
In the case of UAACAGGGGGCCACAGCAGAAGCGUUCACGUCGCAGCCCCUGUCAGAUGCUGGCGAAUCUGCGAAUUCUGCUGUAUAUCUC [U49G U54C], the self-cleavage is reported as 0.44.
With UAACAGGGGGCCACAGCAGAAGCGUUCACGUCGCAGCCCCUGUCAGAUGCUGGUGAAUCUGCGGAUUCUGCUGUAUAUCUC [U49G A64G] the self-cleavage was 0.4.
For UAACAGGGGGCCACAGCAGAAGCGUUCACGUCGCAGCCCCUGUCAGAUGCUGGUGAAUCUGCGAAUUCUGCUGUAUAUCUU [U49G C81U], the self-cleavage was 0.77.
UAACAGGGGGCCACAGCAGAAGCGUUCACGUCGCAGCCCCUGUCAGAUGCUGGUGAAUCUGCGAAUUCUGCUGUAUAUUUC [U49G C79U] gave a self-cleavage of 0.77.
UAACAGGGGGCCACAGCAGAAGCGUUCACGUCGCAGCCCCUGUCAGAUGCUGGUGAAUCUGCGAAUUCUGCUGUAUACCUC [U49G U78C] showed a self-cleavage of 0.43.
Work on UAACAGGGGGCCACAGCAGAAGCGUUCACGUCGCAGCCCCUGUCAGAUCCUGGUGAAUCUGCGAAUUCUGCUGUAUAUCAC [U49C U80A] yielded a self-cleavage of 0.51.
In the case of UAACAGGGGGCCACAGCAGAAGCGUUCACGUCGCAGCCCCUGUCAGAUCCUGGUGAAUCUGCGAAUUCUGCUGUAUAUCCC [U49C U80C], the self-cleavage is reported as 0.61.
In the case of UAACAGGGGGCCACAGCAGAAGCGUUCACGUCGCAGCCCCUGUCAGAUCCUGGUGAAUCUGCGAAUUCUGCUGUAUAUCGC [U49C U80G], the self-cleavage is reported as 0.49.
Work on UAACAGGGGGCCACAGCAGAAGCGUUCACGUCGCAGCCCCUGUCAGAUGCUGGUGAAUCUGCGAAUUCUGCUGUGUAUCUC [U49G A75G] yielded a self-cleavage of 0.42.
